Results as given in article PMC3433420.
Values joined by “and” are separate entries in the source; they are usually repeats but may differ in a detail not shown here. Equal values may be shown once.

Key:
Test in all cases: peptide or protein array; SH2/PTB proteins spotted on aldehyde slides, rhodamine peptide titrated in buffer B (20 mM HEPES, 100 mM KCl, 0.1% Tween-20, 5 mM DTT, pH 7.8), 1 h at room temperature; replicate assays
TEC SH2 domain (human) = TEC SH2 domain (human) (UniProt P42680)
FGR SH2 domain (human) = FGR SH2 domain (human) (UniProt P09769)
[1] = molecular target: RASA1 tandem SH2 domains (human)
[2] = molecular target: RASA1 N-terminal SH2 domain (human) (UniProt P20936)
LYN SH2 domain (human) = LYN SH2 domain (human) (UniProt P07948)
[3] = molecular target: SH2D3C SH2 domain (human) (UniProt Q8N5H7)
YES1 SH2 domain (human) = YES1 SH2 domain (human) (UniProt P07947)
BCAR3 SH2 domain (human) = BCAR3 SH2 domain (human) (UniProt O75815)
[4] = molecular target: SH2D1B SH2 domain (human) (UniProt O14796)
GRB10 SH2 domain (human) = GRB10 SH2 domain (human) (UniProt Q13322)
GRB7 SH2 domain (human) = GRB7 SH2 domain (human) (UniProt Q14451)
[5] = molecular target: SYK N-terminal SH2 domain (human)
[6] = molecular target: SH3BP2 SH2 domain (human) (UniProt P78314)
NCK1 SH2 domain (human) = NCK1 SH2 domain (human) (UniProt P16333)
ABL2 SH2 domain (human) = ABL2 SH2 domain (human) (UniProt P42684)
[7] = molecular target: PTPN11 tandem SH2 domains (human)
[8] = molecular target: SH2D2A SH2 domain (human) (UniProt Q9NP31)
BLK SH2 domain (human) = BLK SH2 domain (human) (UniProt P51451)
SH2B3 SH2 domain (human) = SH2B3 SH2 domain (human) (UniProt Q9UQQ2)
Chain of SH2B3 SH2 domain (human) (Q9UQQ2 364-462): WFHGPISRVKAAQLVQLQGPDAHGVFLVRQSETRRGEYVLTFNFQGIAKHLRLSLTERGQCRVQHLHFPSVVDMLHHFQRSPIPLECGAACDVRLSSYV

Chain of BLK SH2 domain (human) (P51451 124-220): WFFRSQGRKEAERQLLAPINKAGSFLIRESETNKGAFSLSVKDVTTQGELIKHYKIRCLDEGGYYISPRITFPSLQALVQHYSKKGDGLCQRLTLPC
Chain of YES1 SH2 domain (human) (P07947 158-255): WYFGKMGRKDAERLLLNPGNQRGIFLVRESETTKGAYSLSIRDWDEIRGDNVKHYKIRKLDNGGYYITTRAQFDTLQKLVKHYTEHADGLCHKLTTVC
Chain of ABL2 SH2 domain (human) (P42684 173-263): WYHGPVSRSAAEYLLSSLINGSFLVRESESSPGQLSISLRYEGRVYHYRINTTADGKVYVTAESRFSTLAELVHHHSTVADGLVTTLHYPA
Chain of SH3BP2 SH2 domain (human) (P78314 457-555): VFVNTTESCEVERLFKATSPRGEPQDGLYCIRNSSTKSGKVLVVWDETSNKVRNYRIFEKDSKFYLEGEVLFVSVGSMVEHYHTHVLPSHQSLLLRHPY
Chain of SH2D3C SH2 domain (human) (Q8N5H7 220-319): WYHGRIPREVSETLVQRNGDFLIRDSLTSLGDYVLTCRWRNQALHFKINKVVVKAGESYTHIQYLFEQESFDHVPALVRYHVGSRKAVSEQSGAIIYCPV
Chain of LYN SH2 domain (human) (P07948 129-226): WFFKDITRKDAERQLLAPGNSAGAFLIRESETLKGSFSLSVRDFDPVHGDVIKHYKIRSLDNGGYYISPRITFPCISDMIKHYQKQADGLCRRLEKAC
Chain of BCAR3 SH2 domain (human) (O75815 154-253): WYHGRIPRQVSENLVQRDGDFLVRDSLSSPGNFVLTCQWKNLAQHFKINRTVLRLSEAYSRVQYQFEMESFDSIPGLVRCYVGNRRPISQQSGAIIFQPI
Chain of TEC SH2 domain (human) (P42680 247-345): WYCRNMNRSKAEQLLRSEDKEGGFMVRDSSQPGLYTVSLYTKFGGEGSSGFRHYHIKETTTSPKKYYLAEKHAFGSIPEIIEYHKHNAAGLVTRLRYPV
Chain of RASA1 N-terminal SH2 domain (human) (P20936 whole entry, the tested form may be a part): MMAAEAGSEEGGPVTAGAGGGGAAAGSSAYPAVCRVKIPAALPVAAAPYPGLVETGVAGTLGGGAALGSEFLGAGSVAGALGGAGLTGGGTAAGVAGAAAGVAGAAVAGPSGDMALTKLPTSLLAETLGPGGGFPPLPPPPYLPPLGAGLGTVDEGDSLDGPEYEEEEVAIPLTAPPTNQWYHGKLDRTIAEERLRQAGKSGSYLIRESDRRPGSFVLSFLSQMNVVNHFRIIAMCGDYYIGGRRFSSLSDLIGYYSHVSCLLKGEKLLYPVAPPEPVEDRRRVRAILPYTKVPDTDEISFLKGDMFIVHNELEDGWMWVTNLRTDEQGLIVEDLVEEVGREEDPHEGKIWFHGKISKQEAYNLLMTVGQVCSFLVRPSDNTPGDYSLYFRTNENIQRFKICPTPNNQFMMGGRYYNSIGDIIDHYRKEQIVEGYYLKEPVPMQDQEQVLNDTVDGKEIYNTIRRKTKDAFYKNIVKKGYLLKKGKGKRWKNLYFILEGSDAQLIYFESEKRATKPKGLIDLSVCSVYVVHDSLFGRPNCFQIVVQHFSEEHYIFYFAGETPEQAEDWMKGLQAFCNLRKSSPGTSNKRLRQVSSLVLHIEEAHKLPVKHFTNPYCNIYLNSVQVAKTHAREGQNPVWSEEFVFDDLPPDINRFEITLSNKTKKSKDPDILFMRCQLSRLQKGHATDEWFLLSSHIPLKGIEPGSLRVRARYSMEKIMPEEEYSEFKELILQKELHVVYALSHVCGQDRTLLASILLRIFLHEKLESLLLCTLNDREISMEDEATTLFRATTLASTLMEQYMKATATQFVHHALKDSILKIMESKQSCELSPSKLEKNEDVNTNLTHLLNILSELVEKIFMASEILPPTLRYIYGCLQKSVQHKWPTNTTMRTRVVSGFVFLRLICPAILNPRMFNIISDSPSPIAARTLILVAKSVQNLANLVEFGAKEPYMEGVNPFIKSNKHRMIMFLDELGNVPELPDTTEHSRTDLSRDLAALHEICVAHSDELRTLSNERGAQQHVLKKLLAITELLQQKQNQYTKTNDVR
Chain of SH2D2A SH2 domain (human) (Q9NP31 95-186): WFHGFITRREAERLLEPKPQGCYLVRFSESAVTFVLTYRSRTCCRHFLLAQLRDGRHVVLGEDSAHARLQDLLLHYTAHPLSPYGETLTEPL
Chain of GRB10 SH2 domain (human) (Q13322 493-574): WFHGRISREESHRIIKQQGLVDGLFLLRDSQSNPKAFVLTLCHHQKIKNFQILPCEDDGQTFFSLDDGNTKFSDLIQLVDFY
Chain of SH2D1B SH2 domain (human) (O14796 5-101): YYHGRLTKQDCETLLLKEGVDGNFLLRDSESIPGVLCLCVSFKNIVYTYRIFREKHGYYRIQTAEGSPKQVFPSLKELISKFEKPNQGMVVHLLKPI
Chain of GRB7 SH2 domain (human) (Q14451 431-527): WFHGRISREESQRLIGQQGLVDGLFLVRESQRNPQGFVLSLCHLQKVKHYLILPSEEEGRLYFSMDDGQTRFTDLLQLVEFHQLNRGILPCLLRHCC

Kd (TEC SH2 domain (human)): 407 nM and 1190 nM
Kd (FGR SH2 domain (human)): 201 nM and 401 nM
Kd [1]: 318 nM
Kd [2]: 299 nM and 596 nM
Kd (LYN SH2 domain (human)): 201 nM and 579 nM
Kd [3]: 1440 nM and 1160 nM
Kd (YES1 SH2 domain (human)): 111 nM and 329 nM
Kd (BCAR3 SH2 domain (human)): 610 nM and 1170 nM
Kd [4]: 612 nM
Kd (GRB10 SH2 domain (human)): 1500 nM
Kd (GRB7 SH2 domain (human)): 341 nM
Kd [5]: 319 nM and 593 nM
Kd [6]: 403 nM and 1470 nM
Kd (NCK1 SH2 domain (human)): 574 nM and 643 nM
Kd (ABL2 SH2 domain (human)): 60.6 nM and 306 nM
Kd [7]: 536 nM
Kd [8]: 1170 nM
Kd (BLK SH2 domain (human)): 170 nM and 540 nM
Kd (SH2B3 SH2 domain (human)): 1630 nM
Substance: ErbB4 pY1262 phosphopeptide, rhodamine-labelled, for protein microarrays
